Molecular target: T1, extracellular domain (ECD) of human CD47 (19aa-139aa) with C-terminal 6xHis tag (human, UniProt Q08722 19-139)
T1 construct: also called recombinant CD47; recombinant human CD47
Test: ELISA, recombinant human CD47; EC50 as grade, legend the 11th table, row 38

T1 sequence (Q08722 other isoform, or with tags, fused parts or gaps limits assumed): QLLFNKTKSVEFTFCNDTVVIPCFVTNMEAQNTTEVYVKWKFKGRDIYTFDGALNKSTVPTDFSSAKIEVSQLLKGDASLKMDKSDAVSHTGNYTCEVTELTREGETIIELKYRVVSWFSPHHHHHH

EC50 | Binder
10 to 500 pM | hu.18B9.3i (antibody, V domains shown, Humanised 18B9, parent of the alanine scan; also called hu.18B9.3i antibody) VH: EVQLVESGGGLVQPGGSLRLSCAASGFSFNSGYMSWVRQAPGKGLEWIASIYAGSSGKTYYADWAKGRFTISKTSSKTTVYLQMNSLRAEDTAVYYCARDSGGTYYTDYLYLWGQGTLVTVSS VL: DIQMTQSPSSLSASVGDRVTITCRASEGISSYLSWYQQKPGKAPKLLIYKASTLTSGVPSRFSGSGSGTDFTLTISSLQPEDFATYYCQSTYGSSGSSGYGAAFGGGTKVEIK
10 to 500 pM | hu.18B9.3i HC_L102A (antibody, name in Kabat numbering, V domains shown, Alanine scan variant of hu.18B9.3i; Kabat numbering) VH: EVQLVESGGGLVQPGGSLRLSCAASGFSFNSGYMSWVRQAPGKGLEWIASIYAGSSGKTYYADWAKGRFTISKTSSKTTVYLQMNSLRAEDTAVYYCARDSGGTYYTDYLYAWGQGTLVTVSS VL: DIQMTQSPSSLSASVGDRVTITCRASEGISSYLSWYQQKPGKAPKLLIYKASTLTSGVPSRFSGSGSGTDFTLTISSLQPEDFATYYCQSTYGSSGSSGYGAAFGGGTKVEIK
10 to 500 pM | hu.18B9.3i LC_G93A (antibody, name in Kabat numbering, V domains shown, Alanine scan variant of hu.18B9.3i; Kabat numbering) VH: EVQLVESGGGLVQPGGSLRLSCAASGFSFNSGYMSWVRQAPGKGLEWIASIYAGSSGKTYYADWAKGRFTISKTSSKTTVYLQMNSLRAEDTAVYYCARDSGGTYYTDYLYLWGQGTLVTVSS VL: DIQMTQSPSSLSASVGDRVTITCRASEGISSYLSWYQQKPGKAPKLLIYKASTLTSGVPSRFSGSGSGTDFTLTISSLQPEDFATYYCQSTYASSGSSGYGAAFGGGTKVEIK
10 to 500 pM | hu.18B9.3i HC_Y100a_A (antibody, V domains shown, Alanine scan variant of hu.18B9.3i; Kabat numbering) VH: EVQLVESGGGLVQPGGSLRLSCAASGFSFNSGYMSWVRQAPGKGLEWIASIYAGSSGKTYYADWAKGRFTISKTSSKTTVYLQMNSLRAEDTAVYYCARDSGGTYATDYLYLWGQGTLVTVSS VL: DIQMTQSPSSLSASVGDRVTITCRASEGISSYLSWYQQKPGKAPKLLIYKASTLTSGVPSRFSGSGSGTDFTLTISSLQPEDFATYYCQSTYGSSGSSGYGAAFGGGTKVEIK
500 to 5000 pM | hu.18B9.3i LC_Q89A (antibody, name in Kabat numbering, V domains shown, Alanine scan variant of hu.18B9.3i; Kabat numbering) VH: EVQLVESGGGLVQPGGSLRLSCAASGFSFNSGYMSWVRQAPGKGLEWIASIYAGSSGKTYYADWAKGRFTISKTSSKTTVYLQMNSLRAEDTAVYYCARDSGGTYYTDYLYLWGQGTLVTVSS VL: DIQMTQSPSSLSASVGDRVTITCRASEGISSYLSWYQQKPGKAPKLLIYKASTLTSGVPSRFSGSGSGTDFTLTISSLQPEDFATYYCASTYGSSGSSGYGAAFGGGTKVEIK
10 to 500 pM | hu.18B9.3i HC_T99A (antibody, name in Kabat numbering, V domains shown, Alanine scan variant of hu.18B9.3i; Kabat numbering) VH: EVQLVESGGGLVQPGGSLRLSCAASGFSFNSGYMSWVRQAPGKGLEWIASIYAGSSGKTYYADWAKGRFTISKTSSKTTVYLQMNSLRAEDTAVYYCARDSGGAYYTDYLYLWGQGTLVTVSS VL: DIQMTQSPSSLSASVGDRVTITCRASEGISSYLSWYQQKPGKAPKLLIYKASTLTSGVPSRFSGSGSGTDFTLTISSLQPEDFATYYCQSTYGSSGSSGYGAAFGGGTKVEIK
10 to 500 pM | hu.18B9.3i HC_T100b_A (antibody, V domains shown, Alanine scan variant of hu.18B9.3i; Kabat numbering) VH: EVQLVESGGGLVQPGGSLRLSCAASGFSFNSGYMSWVRQAPGKGLEWIASIYAGSSGKTYYADWAKGRFTISKTSSKTTVYLQMNSLRAEDTAVYYCARDSGGTYYADYLYLWGQGTLVTVSS VL: DIQMTQSPSSLSASVGDRVTITCRASEGISSYLSWYQQKPGKAPKLLIYKASTLTSGVPSRFSGSGSGTDFTLTISSLQPEDFATYYCQSTYGSSGSSGYGAAFGGGTKVEIK
500 to 5000 pM | hu.18B9.3i HC_S96A (antibody, name in Kabat numbering, V domains shown, Alanine scan variant of hu.18B9.3i; Kabat numbering) VH: EVQLVESGGGLVQPGGSLRLSCAASGFSFNSGYMSWVRQAPGKGLEWIASIYAGSSGKTYYADWAKGRFTISKTSSKTTVYLQMNSLRAEDTAVYYCARDAGGTYYTDYLYLWGQGTLVTVSS VL: DIQMTQSPSSLSASVGDRVTITCRASEGISSYLSWYQQKPGKAPKLLIYKASTLTSGVPSRFSGSGSGTDFTLTISSLQPEDFATYYCQSTYGSSGSSGYGAAFGGGTKVEIK
10 to 500 pM | hu.18B9.3i HC_Y100A (antibody, name in Kabat numbering, V domains shown, Alanine scan variant of hu.18B9.3i; Kabat numbering) VH: EVQLVESGGGLVQPGGSLRLSCAASGFSFNSGYMSWVRQAPGKGLEWIASIYAGSSGKTYYADWAKGRFTISKTSSKTTVYLQMNSLRAEDTAVYYCARDSGGTAYTDYLYLWGQGTLVTVSS VL: DIQMTQSPSSLSASVGDRVTITCRASEGISSYLSWYQQKPGKAPKLLIYKASTLTSGVPSRFSGSGSGTDFTLTISSLQPEDFATYYCQSTYGSSGSSGYGAAFGGGTKVEIK
10 to 500 pM | hu.18B9.3i LC_S90A (antibody, name in Kabat numbering, V domains shown, Alanine scan variant of hu.18B9.3i; Kabat numbering) VH: EVQLVESGGGLVQPGGSLRLSCAASGFSFNSGYMSWVRQAPGKGLEWIASIYAGSSGKTYYADWAKGRFTISKTSSKTTVYLQMNSLRAEDTAVYYCARDSGGTYYTDYLYLWGQGTLVTVSS VL: DIQMTQSPSSLSASVGDRVTITCRASEGISSYLSWYQQKPGKAPKLLIYKASTLTSGVPSRFSGSGSGTDFTLTISSLQPEDFATYYCQATYGSSGSSGYGAAFGGGTKVEIK
10 to 500 pM | hu.18B9.3i LC_S94A (antibody, name in Kabat numbering, V domains shown, Alanine scan variant of hu.18B9.3i; Kabat numbering) VH: EVQLVESGGGLVQPGGSLRLSCAASGFSFNSGYMSWVRQAPGKGLEWIASIYAGSSGKTYYADWAKGRFTISKTSSKTTVYLQMNSLRAEDTAVYYCARDSGGTYYTDYLYLWGQGTLVTVSS VL: DIQMTQSPSSLSASVGDRVTITCRASEGISSYLSWYQQKPGKAPKLLIYKASTLTSGVPSRFSGSGSGTDFTLTISSLQPEDFATYYCQSTYGASGSSGYGAAFGGGTKVEIK
> 5000 pM | hu.18B9.3i HC_L100e_A (antibody, V domains shown, Alanine scan variant of hu.18B9.3i; Kabat numbering) VH: EVQLVESGGGLVQPGGSLRLSCAASGFSFNSGYMSWVRQAPGKGLEWIASIYAGSSGKTYYADWAKGRFTISKTSSKTTVYLQMNSLRAEDTAVYYCARDSGGTYYTDYAYLWGQGTLVTVSS VL: DIQMTQSPSSLSASVGDRVTITCRASEGISSYLSWYQQKPGKAPKLLIYKASTLTSGVPSRFSGSGSGTDFTLTISSLQPEDFATYYCQSTYGSSGSSGYGAAFGGGTKVEIK
10 to 500 pM | hu.18B9.3i LC_G95a_A (antibody, V domains shown, Alanine scan variant of hu.18B9.3i; Kabat numbering) VH: EVQLVESGGGLVQPGGSLRLSCAASGFSFNSGYMSWVRQAPGKGLEWIASIYAGSSGKTYYADWAKGRFTISKTSSKTTVYLQMNSLRAEDTAVYYCARDSGGTYYTDYLYLWGQGTLVTVSS VL: DIQMTQSPSSLSASVGDRVTITCRASEGISSYLSWYQQKPGKAPKLLIYKASTLTSGVPSRFSGSGSGTDFTLTISSLQPEDFATYYCQSTYGSSASSGYGAAFGGGTKVEIK
10 to 500 pM | hu.18B9.3i LC_G95f_A (antibody, V domains shown, Alanine scan variant of hu.18B9.3i; Kabat numbering) VH: EVQLVESGGGLVQPGGSLRLSCAASGFSFNSGYMSWVRQAPGKGLEWIASIYAGSSGKTYYADWAKGRFTISKTSSKTTVYLQMNSLRAEDTAVYYCARDSGGTYYTDYLYLWGQGTLVTVSS VL: DIQMTQSPSSLSASVGDRVTITCRASEGISSYLSWYQQKPGKAPKLLIYKASTLTSGVPSRFSGSGSGTDFTLTISSLQPEDFATYYCQSTYGSSGSSGYAAAFGGGTKVEIK
10 to 500 pM | hu.18B9.3i LC_G95d_A (antibody, V domains shown, Alanine scan variant of hu.18B9.3i; Kabat numbering) VH: EVQLVESGGGLVQPGGSLRLSCAASGFSFNSGYMSWVRQAPGKGLEWIASIYAGSSGKTYYADWAKGRFTISKTSSKTTVYLQMNSLRAEDTAVYYCARDSGGTYYTDYLYLWGQGTLVTVSS VL: DIQMTQSPSSLSASVGDRVTITCRASEGISSYLSWYQQKPGKAPKLLIYKASTLTSGVPSRFSGSGSGTDFTLTISSLQPEDFATYYCQSTYGSSGSSAYGAAFGGGTKVEIK

— US20240174750A1 (VIRTUOSO BINCO, published 2024)
